This is an account of results in patent publication US20250019412A1 (ALPINE IMMUNE SCIENCES, published 2025).

In assay [1] the target is T1, recombinant human APRIL (human, UniProt O75888 105-250, limits assumed).
T1 sequence (looked up): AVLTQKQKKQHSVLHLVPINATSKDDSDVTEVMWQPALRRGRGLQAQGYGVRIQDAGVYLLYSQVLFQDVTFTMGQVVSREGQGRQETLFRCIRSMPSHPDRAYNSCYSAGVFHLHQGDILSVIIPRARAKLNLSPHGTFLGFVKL
In words: cell-based or functional assay.

In assay [2] the target is recombinant human BAFF (human) (UniProt Q9Y275). Put plainly: cell-based or functional assay.
For assay [3] the target is unchanged.
Assay [4] deals with T2, recombinant human BAFF (human, UniProt Q9Y275 134-285). In words: cell-based or functional assay.
Assay [5] deals with T2, recombinant human BAFF. Put plainly: cell-based or functional assay. The source holds these as a separate data set.
The target of assay [6] is T1, recombinant human APRIL. Put plainly: cell-based or functional assay. This is another data set of the same source.
Assay [7] has as its target T2, recombinant human BAFF. Put plainly: cell-based or functional assay. This is another data set of the same source.

Where “and” joins values, the source holds several entries; their conditions need not be identical. Identical values can stand only once.

As for “TACI vTD-Fc K77E, F78Y, R84Q (SEQ ID NO: 182) (Fc fusion)”, in the assay with recombinant human APRIL [1], the APRIL IC50 (pM) was 10100 pM and the APRIL IC50 (ΔWT) (fold of WT TACI (68-110)-Fc) stood at 0.82. For the same molecule, in assay [2], the BAFF IC50 (pM) turned out to be 2210 pM and the BAFF IC50 (ΔWT) (fold of WT TACI (68-110)-Fc) was determined as 1.19.

As to TACI 30-110-Fc (Fc fusion), in the assay with recombinant human APRIL [1], the IC50 (nM) APRIL was 4320 nM, the IC50 APRIL (Δ TACI 30-110) (fold of TACI 30-110) was determined as 1 and the IC50 APRIL (Δ TACI 30-110-Fc) (fold of TACI 30-110-Fc) is 1. Moreover, in assay [2], the BAFF IC50 (pM) amounted to 7740 pM, the BAFF IC50 (ΔWT) (fold of WT TACI (68-110)-Fc) was 4.17, the IC50 (nM) BAFF came out at 4490 nM and the IC50 BAFF (Δ TACI 30-110) (fold of TACI 30-110) stood at 1. Besides, the IC50 BAFF (Δ TACI 30-110-Fc) (fold of TACI 30-110-Fc) in assay [2] was found to be 1.

As to “TACI vTD-Fc K77E (SEQ ID NO: 32) (Fc fusion)”, in the assay with recombinant human APRIL [1], the APRIL IC50 (pM) is 159 pM and the APRIL IC50 (ΔWT) (fold of WT TACI (68-110)-Fc) stood at 0.01. Moreover, in assay [2], the BAFF IC50 (pM) stood at 1540 pM and the BAFF IC50 (ΔWT) (fold of WT TACI (68-110)-Fc) was 0.83.

As for “TACI vTD-Fc A101D (SEQ ID NO: 23) (Fc fusion)”, the IC50 (read off the curve): blockade of human BAFF signalling via TACI (NF-κB luciferase reporter, Jurkat/NF-κB/TACI cells) in assay [3] came to 0.6 nM. In the assay with recombinant human APRIL [1], the APRIL IC50 (pM) is 8380 pM and the APRIL IC50 (ΔWT) (fold of WT TACI (68-110)-Fc) is 0.68. Moreover, in assay [2], the BAFF IC50 (pM) amounted to 1830 pM and the BAFF IC50 (ΔWT) (fold of WT TACI (68-110)-Fc) worked out at 0.99.

On to “TACI vTD-Fc R84Q (SEQ ID NO: 30) (Fc fusion)”, for which, in assay [3], the IC50 (read off the curve): blockade of human BAFF signalling via TACI (NF-κB luciferase reporter, Jurkat/NF-κB/TACI cells) came to 1 nM. Further, in the assay with recombinant human APRIL [1], the APRIL IC50 (pM) came to 566 pM and the APRIL IC50 (ΔWT) (fold of WT TACI (68-110)-Fc) was found to be 0.05. In assay [2], the BAFF IC50 (pM) was determined as 5490 pM and the BAFF IC50 (ΔWT) (fold of WT TACI (68-110)-Fc) stood at 2.96.

Take “TACI vTD-Fc F78Y (SEQ ID NO: 183) (Fc fusion)”: in the assay with recombinant human APRIL [1], the APRIL IC50 (pM) came out at 176 pM and the APRIL IC50 (ΔWT) (fold of WT TACI (68-110)-Fc) worked out at 0.01. For the same molecule, in assay [2], the BAFF IC50 (pM) amounted to 1640 pM and the BAFF IC50 (ΔWT) (fold of WT TACI (68-110)-Fc) was 0.88.

“TACI vTD-Fc F78Y, A101D (SEQ ID NO: 185) (Fc fusion)”: in the assay with recombinant human APRIL [1], the APRIL IC50 (pM) turned out to be 2020 pM and the APRIL IC50 (ΔWT) (fold of WT TACI (68-110)-Fc) turned out to be 0.16. In assay [2], the BAFF IC50 (pM) turned out to be 1850 pM and the BAFF IC50 (ΔWT) (fold of WT TACI (68-110)-Fc) came to 1.

In the case of “TACI vTD-Fc K77E, F78Y (SEQ ID NO: 191) (Fc fusion)”, in the assay with recombinant human APRIL [1], the APRIL IC50 (pM) was determined as 10100 pM and the APRIL IC50 (ΔWT) (fold of WT TACI (68-110)-Fc) was 0.82. Besides, in assay [2], the BAFF IC50 (pM) is 1970 pM and the BAFF IC50 (ΔWT) (fold of WT TACI (68-110)-Fc) came out at 1.06.

Regarding “TACI vTD-Fc Y102D (SEQ ID NO: 190) (Fc fusion)”, in the assay with recombinant human APRIL [1], the APRIL IC50 (pM) was 11600 pM.

Take TACI 13-118-Fc (Fc fusion): in the assay with recombinant human APRIL [1], the IC50 (nM) APRIL is 7810 nM, the IC50 APRIL (Δ TACI 30-110) (fold of TACI 30-110) stood at 1.81 and the IC50 APRIL (Δ TACI 30-110-Fc) (fold of TACI 30-110-Fc) was 2.37. Also, in assay [2], the BAFF IC50 (pM) was 7900 pM, the BAFF IC50 (ΔWT) (fold of WT TACI (68-110)-Fc) came out at 4.26, the IC50 (nM) BAFF turned out to be 8450 nM and the IC50 BAFF (Δ TACI 30-110) (fold of TACI 30-110) was determined as 1.88. Besides, the IC50 BAFF (Δ TACI 30-110-Fc) (fold of TACI 30-110-Fc) in assay [2] came out at 1.33.

B1: Telitacicept (label of two rows of Table E29) (Fc fusion, not shown: a dimerising Fc or GST)
chain: SRVDQEERFPQGLWTGVAMRSCPEEQYWDPLLGTCMSCKTICNHQSQRTCAAFCRSLSCRKEQGKFYDHLLRDCISCASICGQHPKQCAYFCENKLRSPVNLPPEL
Regarding B1, in assay [2], the BAFF IC50 (pM) is 9170 pM and 7300 pM; the BAFF IC50 (ΔWT) (fold of WT TACI (68-110)-Fc) was 4.95 and 3.94.

B2: 20 TACI CRD2-Fc (Fc fusion)
variant TACI domain - linker - Fc fusion chain: SLSCRKEQGKFYDHLLGDCISCASICGQHPKQCAYFCENKLRSGSGGGGSEPKSSDKTHTCPPCPAPEAEGAPSVFLFPPKPKDTLMISRTPEVTCVVVDVSHEDPEVKFNWYVDGVEVHNAKTKPREEQYNSTYRVVSVLTVLHQDWLNGKEYKCKVSNKALPAPIEKTISKAKGQPREPQVYTLPPSRDELTKNQVSLTCLVKGFYPSDIAVEWESNGQPENNYKTTPPVLDSDGSFFLYSKLTVDKSRWQQGNVFSCSVMHEALHNHYTQKSLSLSPG
For the molecule B2, in the assay with recombinant human BAFF [4], the “IC50 (read off the curve): blockade of human BAFF signalling via TACI (NF-κB luciferase reporter, Jurkat/NF-κB/TACI cells)” value is around 0.7 nM.

B3: 31 TACI CRD2-Fc (Fc fusion)
variant TACI domain - linker - Fc fusion chain: SLSCRKEQGKFYDHLLQDCINCASICGQHPKQCDYFCENKLRSGSGGGGSEPKSSDKTHTCPPCPAPEAEGAPSVFLFPPKPKDTLMISRTPEVTCVVVDVSHEDPEVKFNWYVDGVEVHNAKTKPREEQYNSTYRVVSVLTVLHQDWLNGKEYKCKVSNKALPAPIEKTISKAKGQPREPQVYTLPPSRDELTKNQVSLTCLVKGFYPSDIAVEWESNGQPENNYKTTPPVLDSDGSFFLYSKLTVDKSRWQQGNVFSCSVMHEALHNHYTQKSLSLSPG
Consider B3, for which the “IC50 (read off the curve): blockade of human BAFF signalling via TACI (NF-κB luciferase reporter, Jurkat/NF-κB/TACI cells)” value in the assay with recombinant human BAFF [4] is around 0.6 nM.

B4: belimumab (antibody, V domains shown)
VH: QVQLQQSGAEVKKPGSSVRVSCKASGGTFNNNAINWVRQAPGQGLEWMGGIIPMFGTAKYSQNFQGRVAITADESTGTASMELSSLRSEDTAVYYCARSRDLLLFPHHALSPWGRGTMVTVSS
VL: SSELTQDPAVSVALGQTVRVTCQGDSLRSYYASWYQQKPGQAPVLVIYGKNNRPSGIPDRFSGSSSGNTASLTITGAQAEDEADYYCSSRDSSGNHWVFGGGTELTVLG
On to B4, for which, in the assay with recombinant human BAFF [5], the “IC50 BAFF (Δ TACI 30-110-Fc)” value was 0.43 fold of TACI 30-110-Fc. Also, the “IC50 APRIL (Δ TACI 30-110-Fc)” value with recombinant human APRIL [6] was 55.8 fold of TACI 30-110-Fc. For the same molecule, in the assay with recombinant human BAFF [7], the “BAFF IC50 (pM)” value was 2200 pM and the “BAFF IC50 (ΔWT)” value is 1.18 fold of WT TACI (68-110)-Fc.
